One experiment deals with T1, human C5a (human, UniProt P01031 678-751, biotinylated in the U937/C5aR ligand blocking assay (site not stated)).
T1 construct: also called human antigen; huC5a
T1 sequence: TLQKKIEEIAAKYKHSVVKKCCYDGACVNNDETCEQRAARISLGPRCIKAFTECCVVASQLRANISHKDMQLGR
The experiment is described as follows: SPR, scFv captured via anti-c-myc/anti-His, 5 nM human antigen as analyte, 1:1 fit.

In experiment [1] the target is T2, cynomolgus antigen (cynomolgus).
T2 construct: also called cyno antigen; cynomolgus monkey C5a
The experiment is described as follows: SPR, scFv captured via anti-c-myc/anti-His, 60 nM cynomolgus antigen as analyte, 1:1 fit. As for the experimental part:
The activator was prepared by mixing 400 mM EDC (1-ethyl-3-(3-dimethylaminopropyl) carbodiimide) and 100 mM NHS (N-hydroxysuccinimide) (GE) immediately prior to injection. The CMS sensor chip was activated for 600 s with the mixture at a flow rate of 10 μL/min. Mixture of anti-c-myc and anti his antibodies in 10 mM NaAc (pH 4.5) was then injected to Fc1 and Fc2 of channel 1 to channel 8 for 600 seconds at a flow rate of 10 μL/min. The chip was deactivated by 1 M ethanolamine-HCl (GE) at a flow rate of 10 μL/min for 420 seconds.
The anti-C5a scFv was diluted to 0.5 μg/ml, the other samples were diluted to 2 μg/ml in running buffer 1×HBS-EP+ (0.01 M HEPES, 0.15 M NaCl, 0.003 M EDTA, 0.05% surfactant P20). […] Diluted TES buffer was injected into channel Fc1 at a flow rate of 10 μL/min for 40 s, diluted scFv was injected into channel Fc2 at a flow rate of 10 μL/min for 40 s. […] 10 mM glycine pH 1.5 as regeneration buffer was injected following every dissociation phase. The chip was regenerated with 10 mM glycine pH 1.5.
The sensorgrams for reference channel Fc1 and buffer channel were subtracted from the test sensorgrams. Data were fitted by 1:1 kinetic binding model. Molecular weight of 8.4 kDa was used to calculate the molar concentration of the cyno antigen.
(Surface plasmon resonance follows binding to a sensor surface in real time, without labels.)

Experiment [2] addresses T2, cynomolgus antigen. Description: affinity-ranking ELISA: cynomolgus antigen coated on the plate, normalized scFv periplasmic extract in 3-fold dilutions from 100 nM, anti-c-myc-HRP, OD450. As for the experimental part:
The affinity ranking ELISA was carried out as following: scFv concentrations in PEs were measured by Quantification ELISA using purified scFv sample as a standard. Briefly, anti-His-antibody (Genscript-A00186) were coated on the plates in coating buffer PBS at pH7.4 overnight at 4° C. The next day, plates were blocked with casein in PBS at pH7.4 for 1 hour at 25° C. ScFv containing PEs were diluted 3 fold serial dilutions and then added to the plates. A purified scFv standard sample with known concentration was used as a standard. After incubation at 25° C. for 1 hour and washing 3 times with PBS-T, anti-c-myc-HRP (Bethyl-A190-104P) was added to the wells followed by incubation for 1 hour at 25° C. HRP activity was detected with TMB substrate and the reaction was quenched with 2M HCl. Plates were read at 450 nm.
The next day, plates were blocked with casein in PBS for 1 hour at 25° C. Normalized scFv containing PEs were diluted using 3 fold serial dilutions starting at 100 nM, added to the plates and incubated at 25° C. for 1 hour. After washing, anti-c-myc-HRP was added to the wells followed by incubation for 1 hour at 25° C. HRP activity was detected with TMB substrate and the reaction was quenched with 2M HCl. Plates were read at 450 nm. Data were fitted into one-site binding equation using GraphPad Prism 5 software.
For orientation: An ELISA detects its analyte on a solid surface through an enzyme-linked reagent.

B1: 13B7 (scFv, V domains shown)
VH: QVQLVQSGAEVKKPGSSVKVSCKASGYTFTDHIIHWMRQAPGQGLEWMGYIYPREGWTNYNENFKGRVTITADKSTSTAYMELSSLRSEDTAVYYCARERNLEYFDYWGQGTTVTVSS
VL: DIVLTQSPASLAVSPGQRATITCKASQSVDYEGFNYMNWYQQKPGQPPKLLIYAASNLDSGVPARFSGSGSGTDFTLTINPVEAEDTANYYCQQSVEDPHTFGGGTKVEIK
notes: Combination mutant scFv
B1: the off-rate (koff) (commonly a measure of how fast the partners let go of each other) with human C5a is below 1e-05 s⁻¹; with cynomolgus antigen [1], 0.000252 s⁻¹. Further, in the experiment with cynomolgus antigen [2], the 50% effective concentration (EC50 (read off the curve)) (commonly the concentration giving half of the maximal effect) is around 6 nM.

B2: 5G11 (scFv, V domains shown)
VH: QVQLVQSGAEVKKPGSSVKVSCKASGYTFTDHIIHWMRQAPGQGLEWMGYIYPREGWTNYNENFKGRVTITADKSTSTAYMELSSLRSEDTAVYYCARERNLEYFDYWGQGTTVTVSS
VL: DIVLTQSPASLAVSPGQRATITCKASQSVDYEGFNYMNWYQQKPGQPPKLLIYAASNLDSGVPARFSGSGSGTDFTLTINPVEAEDTANYYCQQSLEDPHTFGGGTKVEIK
notes: Combination mutant scFv
For B2, the koff in the experiment with human C5a was below 1e-05 s⁻¹; with cynomolgus antigen [1], 0.000279 s⁻¹.

B3: 13B9 (scFv, V domains shown)
VH: QVQLVQSGAEVKKPGSSVKVSCKASGYTFTDHIIHWMRQAPGQGLEWMGYIYPREGWTNYNENFKGRVTITADKSTSTAYMELSSLRSEDTAVYYCARERNLEYFDYWGQGTTVTVSS
VL: DIVLTQSPASLAVSPGQRATITCKASQSVDFEGFNYMNWYQQKPGQPPKLLIYAASNLDSGVPARFSGSGSGTDFTLTINPVEAEDTANYYCQQSNEDPHTFGGGTKVEIK
notes: Combination mutant scFv
On to B3, for which the dissociation rate constant (koff) with human C5a turned out to be 2.2e-05 s⁻¹; with cynomolgus antigen [1] it was 0.000327 s⁻¹. In addition, the “EC50 (read off the curve)” value in the experiment with cynomolgus antigen [2] is around 10 nM.

B4: 16F10 (scFv, V domains shown)
VH: QVQLVQSGAEVKKPGSSVKVSCKASGYTFTDHIIHWMRQAPGQGLEWMGYIYPREGWTNYNENFKGRVTITADKSTSTAYMELSSLRSEDTAVYYCARERNLEYFDYWGQGTTVTVSS
VL: DIVLTQSPASLAVSPGQRATITCKASQSVDFEGFNYMNWYQQKPGQPPKLLIYAASNLDSGVPARFSGSGSGTDFTLTINPVEAEDTANYYCQQSVEDPHTFGGGTKVEIK
notes: Combination mutant scFv
As for B4, the dissociation rate constant (koff) with human C5a was 1.14e-05 s⁻¹; with cynomolgus antigen [1], 0.000155 s⁻¹. In addition, the 50% effective concentration (EC50 (read off the curve)) with cynomolgus antigen [2] was around 4 nM.

B5: 16C2 (scFv, V domains shown)
VH: QVQLVQSGAEVKKPGSSVKVSCKASGYTFTDHIIHWMRQAPGQGLEWMGYIYPREGWTNYNENFKGRVTITADKSTSTAYMELSSLRSEDTAVYYCARERNLEYFDYWGQGTTVTVSS
VL: DIVLTQSPASLAVSPGQRATITCKASQSVDYEGFNYMNWYQQKPGQPPKLLIYATSNLDSGVPARFSGSGSGTDFTLTINPVEAEDTANYYCQQSVEDPHTFGGGTKVEIK
notes: Combination mutant scFv
With B5, the koff in the experiment with human C5a stood at 2.58e-05 s⁻¹; with cynomolgus antigen [1], 0.00176 s⁻¹.

B6: 18F5 (scFv, V domains shown)
VH: QVQLVQSGAEVKKPGSSVKVSCKASGYTFTDHIIHWMRQAPGQGLEWMGYIYPREGFTNYNENFKGRVTITADKSTSTAYMELSSLRSEDTAVYYCARERNLEYFDYWGQGTTVTVSS
VL: DIVLTQSPASLAVSPGQRATITCKASQSVDFEGFNYMNWYQQKPGQPPKLLIYAASNLDSGVPARFSGSGSGTDFTLTINPVEAEDTANYYCQQSVEDPHTFGGGTKVEIK
notes: Combination mutant scFv
On to B6, for which the off-rate (koff) with human C5a stood at 3.03e-05 s⁻¹; in the experiment with cynomolgus antigen [1] it was 0.000319 s⁻¹. Besides, the “EC50 (read off the curve)” value in the experiment with cynomolgus antigen [2] was around 8 nM.

B7: 17D2 (scFv, V domains shown)
VH: QVQLVQSGAEVKKPGSSVKVSCKASGYTFTDHIIHWMRQAPGQGLEWMGYIYPREGWTNYNENFKGRVTITADKSTSTAYMELSSLRSEDTAVYYCARERNLEYFDYWGQGTTVTVSS
VL: DIVLTQSPASLAVSPGQRATITCKASQSVDFEGDNYMNWYQQKPGQPPKLLIYATSNLDSGVPARFSGSGSGTDFTLTINPVEAEDTANYYCQQSVEDPHTFGGGTKVEIK
notes: Combination mutant scFv
As for B7, the figures for the off-rate constant (koff) with human C5a and with cynomolgus antigen [1] were 1.89e-05 s⁻¹ and 0.0019 s⁻¹, respectively.

B8: 10F5 (scFv, V domains shown)
VH: QVQLVQSGAEVKKPGSSVKVSCKASGYTFTDHIIHWMRQAPGQGLEWMGYIYPREGWTNYNENFKGRVTITADKSTSTAYMELSSLRSEDTAVYYCARERNLEYFDYWGQGTTVTVSS
VL: DIVLTQSPASLAVSPGQRATITCKASQSVDYEGDNYMNWYQQKPGQPPKLLIYATSNLDSGVPARFSGSGSGTDFTLTINPVEAEDTANYYCQQSLEDPHTFGGGTKVEIK
notes: Combination mutant scFv
On to B8, for which the koff with human C5a was below 1e-05 s⁻¹; with cynomolgus antigen [1] it was 0.00202 s⁻¹.

B9: 2H8E10 (scFv, V domains shown)
VH: QVQLVQSGAEVKKPGSSVKVSCKASGYTFTDHIIHWMRQAPGQGLEWMGYIYPREGWTNYNENFKGRVTITADKSTSTAYMELSSLRSEDTAVYYCARERNLEYFDYWGQGTTVTVSS
VL: DIVLTQSPASLAVSPGQRATITCKASQSVDYEGDNYMNWYQQKPGQPPKLLIYAASNLDSGVPARFSGSGSGTDFTLTINPVEAEDTANYYCQQSNEDPHTFGGGTKVEIK
notes: Combination mutant scFv
For B9, the koff with human C5a came to 1.82e-05 s⁻¹; in the experiment with cynomolgus antigen [1], 0.00258 s⁻¹.

B10: 8C1 (scFv, V domains shown)
VH: QVQLVQSGAEVKKPGSSVKVSCKASGYTFTDHIIHWMRQAPGQGLEWMGYIYPREGWTNYNENFKGRVTITADKSTSTAYMELSSLRSEDTAVYYCARERNLEYFDYWGQGTTVTVSS
VL: DIVLTQSPASLAVSPGQRATITCKASQSVDFEGFNYMNWYQQKPGQPPKLLIYAASNLDSGVPARFSGSGSGTDFTLTINPVEAEDTANYYCQQSLEDPHTFGGGTKVEIK
notes: Combination mutant scFv
For the molecule B10, the koff in the experiment with human C5a was below 1e-05 s⁻¹; with cynomolgus antigen [1] it was 0.000481 s⁻¹.

B11: 19D2 (scFv, V domains shown)
VH: QVQLVQSGAEVKKPGSSVKVSCKASGYTFTDHIIHWMRQAPGQGLEWMGYIYPREGWTNYNENFKGRVTITADKSTSTAYMELSSLRSEDTAVYYCARERNLEYFDYWGQGTTVTVSS
VL: DIVLTQSPASLAVSPGQRATITCKASQSVDFEGDNYMNWYQQKPGQPPKLLIYATSNLDSGVPARFSGSGSGTDFTLTINPVEAEDTANYYCQQSLEDPHTFGGGTKVEIK
notes: Combination mutant scFv
With B11, the koff with human C5a is below 1e-05 s⁻¹; with cynomolgus antigen [1], 0.00102 s⁻¹.

B12: 8H8 (scFv, V domains shown)
VH: QVQLVQSGAEVKKPGSSVKVSCKASGYTFTDHIIHWMRQAPGQGLEWMGYIYPREGWTNYNENFKGRVTITADKSTSTAYMELSSLRSEDTAVYYCARERNLEYFDYWGQGTTVTVSS
VL: DIVLTQSPASLAVSPGQRATITCKASQSVDYEGFNYMNWYQQKPGQPPKLLIYATSNLDSGVPARFSGSGSGTDFTLTINPVEAEDTANYYCQQSLEDPHTFGGGTKVEIK
notes: Combination mutant scFv
For the molecule B12, the koff turned out to be 2.69e-05 s⁻¹ with human C5a and 0.000927 s⁻¹ with cynomolgus antigen [1].

B13: 18D3 (scFv, V domains shown)
VH: QVQLVQSGAEVKKPGSSVKVSCKASGYTFTDHIIHWMRQAPGQGLEWMGYIYPREGWTNYNENFKGRVTITADKSTSTAYMELSSLRSEDTAVYYCARERNLEYFDYWGQGTTVTVSS
VL: DIVLTQSPASLAVSPGQRATITCKASQSVDYEGDNYMNWYQQKPGQPPKLLIYATSNLDSGVPARFSGSGSGTDFTLTINPVEAEDTANYYCQQSVEDPHTFGGGTKVEIK
notes: Combination mutant scFv
Regarding B13, the dissociation rate constant (koff) is 2.98e-05 s⁻¹ in the experiment with human C5a and 0.00418 s⁻¹ in the experiment with cynomolgus antigen [1].

B14: 16D10 scFv (scFv, V domains shown)
VH: QVQLVQSGAEVKKPGSSVKVSCKASGYTFTDHIIHWMRQAPGQGLEWMGYIYPREGWTNYNENFKGRVTITADKSTSTAYMELSSLRSEDTAVYYCARERNLEYFDYWGQGTTVTVSS
VL: DIVLTQSPASLAVSPGQRATITCKASQSVDYEGFNYMNWYQQKPGQPPKLLIYAASNLDSGVPARFSGSGSGTDFTLTINPVEAEDTANYYCQQSNEDPYTFGGGTKVEIK
Consider B14, for which the dissociation rate constant (koff) in the experiment with human C5a was 2.34e-05 s⁻¹; in the experiment with cynomolgus antigen [1] it was 0.000465 s⁻¹. Also, the “EC50 (read off the curve)” value with cynomolgus antigen [2] was around 20 nM.

B15: 11A11 (scFv, V domains shown)
VH: QVQLVQSGAEVKKPGSSVKVSCKASGYTFTDHIIHWMRQAPGQGLEWMGYIYPREGWTNYNENFKGRVTITADKSTSTAYMELSSLRSEDTAVYYCARERNLEYFDYWGQGTTVTVSS
VL: DIVLTQSPASLAVSPGQRATITCKASQSVDFEGFNYMNWYQQKPGQPPKLLIYATSNLDSGVPARFSGSGSGTDFTLTINPVEAEDTANYYCQQSVEDPHTFGGGTKVEIK
notes: Combination mutant scFv
In the case of B15, the off-rate constant (koff) in the experiment with human C5a was below 1e-05 s⁻¹; with cynomolgus antigen [1], 0.000786 s⁻¹.

For the origin of these results see patent US20240376189A1 (University of Pennsylvania, published 2024).
